Source: US20110202000A1 (MEDTRONIC, published 2011)

Columns and labels:
[1] = target: T1, Abeta42 beta amyloid peptide (UniProt P05067 672-713); experiment: competition ELISA on coated beta amyloid, purified antibody (Table 4 experiment)
T1 construct: domain: Abeta42; also called Aβ42; beta amyloid (Covance)
Experimental: (§1) Binding of humanized variants were tested in the competition binding ELISA described in Example 1. Briefly, supernatants from the best expressing lines for each combination were quantified using an Fc capture, Kappa light chain detection ELISA in comparison to a IgG1/kappa standard. The quantified supernatants were then tested in a competition ELISA for binding to their target antigen, beta amyloid. 96 well maxisorb plates (Nunc-Fisher Scientific, Loughborough, UK) were coated overnight at 4° C. with 50 μl/well of 0.06125 μg/ml beta amyloid (Covance, UK) in carbonate buffer pH 9.6. […] The titrations, 50 μl/well, were added to washed (3× with PBS pH 7.4/0.5%BSA/0.05% Tween 20) assay plates and incubated at room temperature for 1 hour. […] After stopping the reaction with 50 μl/well 3M HCl, absorbance was measured at 450 nm and the binding curves of the test antibodies were compared to the mouse reference standard. Absorbance was plotted against sample concentration and straight lines were fitted through each of the data sets.
The purified antibodies were tested for binding to beta amyloid via competition ELISA as described above (n=2). […] Absorbance at 450 nm was measured and this was plotted against test antibody concentration.

[2] = target: T1, Abeta42 beta amyloid peptide; experiment: competition ELISA on coated beta amyloid, NS0 supernatant; competitor biotinylated mouse 6E10
Experimental: 100 μl of the antibody mixes were transferred into the wells of Immulon Maxisorb plates precoated with 0.06125 μg/ml Abeta₄₂ beta amyloid peptide coated plates and incubated at room temperature for 1 hour. The plate was washed, and bound biotinylated mouse 6E10 was detected by adding a strepavidin-HRP conjugate (Sigma, Poole UK) (diluted at 1:500) and OPD substrate (Sigma, Poole UK). The assay was developed in the dark for 5 minutes before being stopped by the addition of 3M HCl. The assay plate was then read in a MRX TCII plate reader at absorbance 490 nm.
as §1, with “hour. Plates were washed as above and 100 μl/well of a 1/500 dilution of streptavidin HRP (Sigma, Poole, UK) in PBS pH 7.4/0.5% BSA/0.05% Tween was added and incubated for a further 1 hour at room temperature.” for “hour.”

[3] = target: T1, Abeta42 beta amyloid peptide; experiment: competition ELISA on coated beta amyloid, purified antibody, n=2; competitor biotinylated chimeric mouse 6E10
Experimental: as §1, with “hour. Plates were washed as above and 100 μl/well of a 1/500 dilution of streptavidin HRP (Sigma, Poole, UK) in PBS pH 7.4/0.5% BSA/0.05% Tween was added and incubated for a further 1 hour at room temperature.” for “hour.”
The purified antibodies were tested for binding to beta amyloid via competition ELISA as described above (n=2). Titrations of the test antibodies were done from 0.003 μg/ml to 16 μg/ml in duplicate. Absorbance at 450 nm was measured and this was plotted against test antibody concentration.

Aβ40 peptide = target: T2, Aβ40 peptide (UniProt P05067 672-711); experiment: western immunoblot of Aβ40 peptide, antibody at 1000-fold dilution
T2 construct: domain: Aβ40; also called amyloid beta
Experimental: (§2) The resulting conjugated antibodies (IgG and F(ab)₂ fragments) were subjected to dialysis to separate conjugated from unconjugated antibodies. The conjugated IgG antibodies were tested for their ability to bind amyloid beta (Aβ40 and Aβ42), using a western immunoblotting assay. In brief, Aβ40 or Aβ42 peptides (0.5 μg in diluent; Covance) were diluted in 4 μl nanopure water and prepared with 2× sample buffer to run through 4-20% Pierce Precise Protein Gel at 55V for 15 min, and then at 100V for 55 min. The proteins were then transferred onto 0.2 μm nitrocellulose membrane at 6V for 30 min. The membrane was blocked with a solution of dried milk powder (5% in Tris-buffered saline with Tween20; TBST, 1 L distilled water, 8 g NaCl, 2.4 g Tris, pH 7.5 with HCl, 1 mL Tween20). Membranes were then incubated overnight with a 1000-fold dilution of unconjugated or PSA-conjugated 6E10 IgG or F(ab′)₂ preparations, washed thrice with TBST for 5 min each, incubated with 1:2000 dilution of HRP-conjugated goat anti-mouse secondary antibody, and washed twice again with TBST for 10 min each. The chemiluminescent signal was developed with ECL-Plus reagent and the membranes were exposed to Kodak films to illustrate the bands.

[4] = target: T1, Abeta42 beta amyloid peptide; experiment: western immunoblot of Aβ42 peptide, antibody at 1000-fold dilution
Experimental: as §2

T1 sequence (P05067 672-713 limits assumed): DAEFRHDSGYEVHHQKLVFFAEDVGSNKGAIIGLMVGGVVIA
T2 sequence (P05067 672-711 limits assumed): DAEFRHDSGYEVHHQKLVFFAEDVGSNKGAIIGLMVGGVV

fold difference in IC50 relative to mouse 6E10 (Binding Efficiencies Relative to Mouse MDT-2007) [2] | Fold Difference (IC50 normalized to the reference) [3] | IC50 [3] | Binder | other results
0.94 fold | 1.14 fold | 4.1 µg/mL | composite human antibody variant VH4/VK1 (antibody, human IgG1, V domains shown, Human IgG1/kappa (pANT15/pANT13)) VH: QVQLVQSGAEVKKPGASVKVSCTASGFNIKDTYIHWVRQARGQRLEWIGRFDPVNVNTRYDSRFRGRVTITSDASTNTAYMELSSLRSEDTAVYYCSRSYYNGRRRFTYWGQGTLVTVSS VL: DIVMTQSPDSLTVSLGERATINCKASQSLLSSGNQKNYLTWYQQKPGQPPKLLIYWASIRESGVPDRFTGSGSGTFFTLTISSLQAEDVAVYYCQNDYNYPFTFGQGTKLEIK | –
1.36 fold | – | – | composite human antibody variant VH4/VK3 (antibody, human IgG1, V domains shown, Human IgG1/kappa (pANT15/pANT13); Tested as quantified NS0 supernatant) VH: QVQLVQSGAEVKKPGASVKVSCTASGFNIKDTYIHWVRQARGQRLEWIGRFDPVNVNTRYDSRFRGRVTITSDASTNTAYMELSSLRSEDTAVYYCSRSYYNGRRRFTYWGQGTLVTVSS VL: DIVMTQSPSSLTASVGDRVTITCKASQSLLSSGNQKNYLTWYQQKPGQPPKLLIYWASIRESGVPDRFSGSGSGTDFTLTISSLQAEDVAVYYCQNDYNYPFTFGQGTKLEIK | –
1.57 fold | – | – | composite human antibody variant VH3/VK3 (antibody, human IgG1, V domains shown, Human IgG1/kappa (pANT15/pANT13); Tested as quantified NS0 supernatant) VH: QVQLVQSGAEVKKPGASVKVSCTASGFNIKDTYIHWVRQARGQRLEWIGRFDPVNVNTRYDSRFRGRATITSDASTNTAYMELSSLRSEDTAVYYCSRSYYNGRRRFTYWGQGTLVTVSS VL: DIVMTQSPSSLTASVGDRVTITCKASQSLLSSGNQKNYLTWYQQKPGQPPKLLIYWASIRESGVPDRFSGSGSGTDFTLTISSLQAEDVAVYYCQNDYNYPFTFGQGTKLEIK | –
0.8 fold | 0.91 fold | 3.3 µg/mL | composite human antibody variant VH5/VK1 (antibody, human IgG1, V domains shown, Human IgG1/kappa (pANT15/pANT13)) VH: QVQLVQSGAEVKKPGASVKVSCTASGFNIKDTYIHWVRQARGQRLEWIGRFDPVNVNTRYDSRFRGRVTITSDASTSTAYMELSSLRSEDTAVYYCSRSYYNGRRRFTYWGQGTLVTVSS VL: DIVMTQSPDSLTVSLGERATINCKASQSLLSSGNQKNYLTWYQQKPGQPPKLLIYWASIRESGVPDRFTGSGSGTFFTLTISSLQAEDVAVYYCQNDYNYPFTFGQGTKLEIK | –
1.02 fold | – | – | composite human antibody variant VH5/VK3 (antibody, human IgG1, V domains shown, Human IgG1/kappa (pANT15/pANT13); Tested as quantified NS0 supernatant) VH: QVQLVQSGAEVKKPGASVKVSCTASGFNIKDTYIHWVRQARGQRLEWIGRFDPVNVNTRYDSRFRGRVTITSDASTSTAYMELSSLRSEDTAVYYCSRSYYNGRRRFTYWGQGTLVTVSS VL: DIVMTQSPSSLTASVGDRVTITCKASQSLLSSGNQKNYLTWYQQKPGQPPKLLIYWASIRESGVPDRFSGSGSGTDFTLTISSLQAEDVAVYYCQNDYNYPFTFGQGTKLEIK | –
0.96 fold | – | – | composite human antibody variant VH2/VK3 (antibody, human IgG1, V domains shown, Human IgG1/kappa (pANT15/pANT13); Tested as quantified NS0 supernatant) VH: EVQLVQSGAEVKKPGASVKVSCTASGFNIKDTYIHWVRQARGQRLEWIGRFDPVNVNTRYDSRFRGRATITSDASTNTAYMELSSLRSEDTAVYYCSRSYYNGRRRFTYWGQGTLVTVSS VL: DIVMTQSPSSLTASVGDRVTITCKASQSLLSSGNQKNYLTWYQQKPGQPPKLLIYWASIRESGVPDRFSGSGSGTDFTLTISSLQAEDVAVYYCQNDYNYPFTFGQGTKLEIK | –
0.72 fold | 0.72 fold | 2.6 µg/mL | composite human antibody variant VH5/VK2 (antibody, human IgG1, V domains shown, Human IgG1/kappa (pANT15/pANT13)) VH: QVQLVQSGAEVKKPGASVKVSCTASGFNIKDTYIHWVRQARGQRLEWIGRFDPVNVNTRYDSRFRGRVTITSDASTSTAYMELSSLRSEDTAVYYCSRSYYNGRRRFTYWGQGTLVTVSS VL: DIVMTQSPSSLTASVGDRVTITCKASQSLLSSGNQKNYLTWYQQKPGQPPKLLIYWASIRESGVPDRFTGSGSGTFFTLTISSLQAEDVAVYYCQNDYNYPFTFGQGTKLEIK | –

The remaining lines, values behind:

Binder | fold difference in IC50 relative to mouse 6E10 (Binding Efficiencies Relative to Mouse MDT-2007) [2] | Fold Difference (IC50 normalized to the reference) [3] | IC50 [3] | other results
MDT-2007 (composite human antibody sequence variant VH4/VK2) (antibody, V domains shown, Human IgG1/kappa (pANT15/pANT13)) VH: QVQLVQSGAEVKKPGASVKVSCTASGFNIKDTYIHWVRQARGQRLEWIGRFDPVNVNTRYDSRFRGRVTITSDASTNTAYMELSSLRSEDTAVYYCSRSYYNGRRRFTYWGQGTLVTVSS VL: DIVMTQSPSSLTASVGDRVTITCKASQSLLSSGNQKNYLTWYQQKPGQPPKLLIYWASIRESGVPDRFTGSGSGTFFTLTISSLQAEDVAVYYCQNDYNYPFTFGQGTKLEIK | 0.67 fold | 0.57 fold | 2.1 µg/mL | fold increase in binding compared to the mouse reference [1]: 1.72 fold
chimeric 6E10 antibody (mouse 6E10 V regions, human IgG1/kappa constant regions) (antibody, V domains shown, also called chimeric mouse 6E10 antibody; chimeric antibody) VH: EVQLQQSGAELVKPGASVKLSCTASGFNIKDTYIHWVKQRPEQGLEWIGRFDPVNVNTRYDSRFRGKATITSDASSNTAYLHLNSLTSEDTAVYYCSRSYYNGRRRFTYWGQGTLVTVSA VL: DIVMTQSPSSLTVTAGEKVALTCKASQSLLSSGNQKNYLTWYQQKPGQPPKLLIYWASIRESGVPDRFTGSGSGTFFTLTISSVQAEDLAVYYCQNDYNYPFTFGSGTKLEIK | – | 1 fold | 3.6 µg/mL | –
PSA-conjugated 6E10 IgG anti-Aβ antibody (antibody, V domains shown, polysialic acid (PSA) conjugated; site and chain not stated; polysialic acid (PSA, 30 to 90 sialic acid units) conjugated by periodate oxidation and sodium cyanoborohydride; site and chain not stated, also called PSA-conjugated IgG anti-Aβ; conjugated IgG antibodies) VH: EVQLQQSGAELVKPGASVKLSCTASGFNIKDTYIHWVKQRPEQGLEWIGRFDPVNVNTRYDSRFRGKATITSDASSNTAYLHLNSLTSEDTAVYYCSRSYYNGRRRFTYWGQGTLVTVSA VL: DIVMTQSPSSLTVTAGEKVALTCKASQSLLSSGNQKNYLTWYQQKPGQPPKLLIYWASIRESGVPDRFTGSGSGTFFTLTISSVQAEDLAVYYCQNDYNYPFTFGSGTKLEIK | – | – | – | binding result (Aβ40 peptide): binds; binding result [4]: binds
composite human antibody variant VH1/VK3 (antibody, human IgG1, V domains shown, Human IgG1/kappa (pANT15/pANT13); Tested as quantified NS0 supernatant) VH: EVQLVQSGAELKKPGASVKVSCTASGFNIKDTYIHWVRQAPGQRLEWIGRFDPVNVNTRYDSRFRGRATITSDASTNTAYMELSSLRSEDTAVYYCSRSYYNGRRRFTYWGQGTLVTVSS VL: DIVMTQSPSSLTASVGDRVTITCKASQSLLSSGNQKNYLTWYQQKPGQPPKLLIYWASIRESGVPDRFSGSGSGTDFTLTISSLQAEDVAVYYCQNDYNYPFTFGQGTKLEIK | 1.93 fold | – | – | –
composite human antibody variant VH2/VK2 (antibody, human IgG1, V domains shown, Human IgG1/kappa (pANT15/pANT13); Tested as quantified NS0 supernatant) VH: EVQLVQSGAEVKKPGASVKVSCTASGFNIKDTYIHWVRQARGQRLEWIGRFDPVNVNTRYDSRFRGRATITSDASTNTAYMELSSLRSEDTAVYYCSRSYYNGRRRFTYWGQGTLVTVSS VL: DIVMTQSPSSLTASVGDRVTITCKASQSLLSSGNQKNYLTWYQQKPGQPPKLLIYWASIRESGVPDRFTGSGSGTFFTLTISSLQAEDVAVYYCQNDYNYPFTFGQGTKLEIK | 1.1 fold | – | – | –
composite human antibody variant VH1/VK1 (antibody, human IgG1, V domains shown, Human IgG1/kappa (pANT15/pANT13); Tested as quantified NS0 supernatant) VH: EVQLVQSGAELKKPGASVKVSCTASGFNIKDTYIHWVRQAPGQRLEWIGRFDPVNVNTRYDSRFRGRATITSDASTNTAYMELSSLRSEDTAVYYCSRSYYNGRRRFTYWGQGTLVTVSS VL: DIVMTQSPDSLTVSLGERATINCKASQSLLSSGNQKNYLTWYQQKPGQPPKLLIYWASIRESGVPDRFTGSGSGTFFTLTISSLQAEDVAVYYCQNDYNYPFTFGQGTKLEIK | 0.78 fold | – | – | –
